Results reported in paper PMC3469418, “New Partners in Regulation of Gene Expression: The Enhancer of Trithorax and Polycomb Corto Interacts with Methylated Ribosomal Protein L12 Via Its Chromodomain” (PLoS Genetics, 2012).
pKd: −log10 of the molar value. Where two headings read alike, the source gives them in different places.

Columns and labels:
Assay in all cases: SPR; Biacore 3000; GST, GST-CortoCD or GST-HP1CD covalently coupled to a CM5 chip; peptides injected at 1 or 10 µM (binding test) or in series from 1 to 10 µM (kinetics), 5 µL/min, 5 min; 10 mM Hepes pH7.4, 150 mM NaCl, 3 mM EDTA, 0.005% P20; 1:1 Langmuir fit
[1] = molecular target: GST-CortoCD (Corto chromodomain fused to GST) (D. melanogaster)
[2] = molecular target: GST-HP1CD (HP1 chromodomain fused to GST)
[3] = molecular target: GST-CortoCD (Corto chromodomain fused to GST) (D. melanogaster); remark: listed apart in the source

Row | Substance | pKd [1] | pKd [2] | pKd [3]
1 | RPL12 peptide dimethylated on lysine 3 | < 3.70 | – | –
2 | RPL12 peptide trimethylated on lysine 10 | < 3.70 | < 3.70 | –
3 | RPL12 peptide trimethylated on lysine 3 | 5.10 | < 3.70 | > 4.00

The remaining lines, values ahead:

Row | pKd [1] | pKd [2] | pKd [3] | Substance
4 | < 3.70 | < 3.70 | – | RPL12 unmodified peptide
5 | – | 6.15 | – | histone H3 peptide trimethylated on lysine 27
6 | – | 6.40 | – | histone H3 peptide trimethylated on lysine 9
